From article doi:10.1101/2022.09.25.509378

Key:
[1] = biological target: bacteriophage λ terminase protomer (TerL•TerS2) (bacteriophage λ) (UniProt P03708); assay: AUC
[2] = biological target: bacteriophage λ terminase protomer (TerL•TerS2) (bacteriophage λ) (UniProt P03708); assay: native MS
[3] = biological target: bacteriophage λ terminase protomer (TerL•TerS2) (bacteriophage λ) (UniProt P03708); assay: SAXS
[4] = biological target: bacteriophage λ terminase protomer (TerL•TerS2) (bacteriophage λ) (UniProt P03708); assay: AUC; remark: listed apart in the source
[5] = biological target: bacteriophage λ terminase protomer (TerL•TerS2) (bacteriophage λ) (UniProt P03708); assay: cryo-EM 2D class averages

In the case of “bacteriophage λ terminase protomer (TerL•TerS2) (from UniProt P03708 1-641; P03707 1-181) (complex)”, the stoichiometry N [1] was 4.5 S, the stoichiometry N [2] was 5 protomers and the stoichiometry N [3] was 4.4 protomers. It also gave a stoichiometry N [4] of 3.3 to 4.4 protomers and a stoichiometry N [5] of 5.
